Assay results published in the supplement of paper PMC10724198.
± gives the standard deviation of the averaged measurements.

Legend:
Saccharomyces cerevisiae [1] = test: protein stability index of tFT-peptide fusion (C-terminal peptide) (PSI (0-1 scale)); higher = more stable (slower turnover)
Protocol: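 MPS profiling in S. cerevisiae of the tFT-X12 degron library: putative degron peptides plus stable controls, 12 aa, fused to the C-terminus of a sfGFP-mCherry timer. Cells are FACS-sorted into 8 mCherry/sfGFP bins and deep-sequenced. PSI runs from 0 (unstable) to 1 (stable). Backgrounds are wild type, das1Δ and doa10Δ at 30 °C, and wild type, das1Δ, cdc34-1 and cdc53-1 at 37 °C; 2-3 technical replicates each.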

Saccharomyces cerevisiae [2] = test: as above; conditions: genetic background: wild type; temperature: 30 C
[3] = genetic background: cdc34-1, temperature: 37 C
[4] = genetic background: cdc53-1, temperature: 37 C
[5] = genetic background: das1 deletion, temperature: 30 C
[6] = genetic background: das1 deletion, temperature: 37 C
[7] = genetic background: doa10 deletion, temperature: 30 C
[8] = genetic background: wild type, temperature: 30 C
[9] = genetic background: wild type, temperature: 37 C
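Also: PSI is a weighted mean of sequencing reads over stability bins, variants kept only with over 10 reads, mCherry proximal and sfGFP distal, peptide attached via GGGS linker.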

Sequence | protein stability index (Saccharomyces cerevisiae [1]; [3]) | protein stability index (Saccharomyces cerevisiae [1]; [4]) | protein stability index (Saccharomyces cerevisiae [1]; [5]) | protein stability index (Saccharomyces cerevisiae [1]; [6]) | protein stability index (Saccharomyces cerevisiae [1]; [7]) | protein stability index (Saccharomyces cerevisiae [1]; [8]) | protein stability index (Saccharomyces cerevisiae [1]; [9]) | protein stability index (Saccharomyces cerevisiae [2])
RLLRGDRMVICS | 0.5515 ± 0.0014 | 0.565 ± 0.057 | 0.395 ± 0.039 | 0.615 ± 0.0066 | 0.3601 ± 0.0008 | 0.375 ± 0.022 | 0.582 ± 0.0066 | 0.433 ± 0.017
RLMLSWLALRRC | 0.617 ± 0.058 | 0.665 ± 0.015 | 0.601 ± 0.036 | 0.689 ± 0.02 | 0.351 ± 0.026 | 0.344 ± 0.068 | 0.575 ± 0.0095 | 0.476 ± 0.0067
RLPYSLTFFLLC | 0.414 ± 0.0067 | 0.5789 ± 0.0027 | 0.484 ± 0.038 | 0.576 ± 0.0034 | 0.07289 ± 0.00032 | 0.0628 ± 0.018 | 0.0714 ± 0.0077 | 0.134 ± 0.009
RLVCPFYIACVW | 0.623 ± 0.012 | 0.649 ± 0.01 | 0.509 ± 0.016 | 0.588 ± 0.014 | 0.468 ± 0.015 | 0.488 ± 0.022 | 0.567 ± 0.031 | 0.516 ± 0.027
RNCSFRRIQLAM | 0.651 ± 0.063 | 0.699 ± 0.032 | 0.594 ± 0.0073 | 0.715 ± 0.0059 | 0.162 ± 0.0031 | 0.19 ± 0.022 | 0.298 ± 0.0095 | 0.362 ± 0.045
RNKIWCTVIMRL | 0.51 ± 0.042 | 0.537 ± 0.0088 | 0.453 ± 0.036 | 0.597 ± 0.02 | 0.229 ± 0.01 | 0.234 ± 0.046 | 0.396 ± 0.02 | 0.4002 ± 0.0026
RPAVVPPPFAPL | 0.652 ± 0.032 | 0.724 ± 0.023 | 0.707 ± 0.0089 | 0.7172 ± 0.0055 | 0.708 ± 0.018 | 0.695 ± 0.01 | 0.6996 ± 0.003 | 0.76 ± 0.041
RQALYFLMICGL | 0.508 ± 0.024 | 0.564 ± 0.023 | 0.407 ± 0.039 | 0.545 ± 0.0071 | 0.29391 ± 6e-05 | 0.318 ± 0.019 | 0.459 ± 0.027 | 0.421 ± 0.0045
RRIKIRKQEYIS | 0.572 ± 0.13 | 0.696 ± 0.04 | 0.684 ± 0.029 | 0.719 ± 0.018 | 0.185 ± 0.0051 | 0.217 ± 0.023 | 0.459 ± 0.021 | 0.313 ± 0.029
RRRRHVDHSTQR | 0.495 ± 0.04 | 0.572 ± 0.0085 | 0.542 ± 0.011 | 0.582 ± 0.011 | 0.557 ± 0.038 | 0.554 ± 0.045 | 0.5704 ± 0.0037 | 0.4737 ± 0.0036
RTWLHLVVPVWG | 0.213 ± 0.026 | 0.265 ± 0.044 | 0.222 ± 0.034 | 0.3778 ± 0.0024 | 0.19 ± 0.0051 | 0.228 ± 0.037 | 0.318 ± 0.014 | 0.3367 ± 0.0022
RVGWVVVLGCVG | 0.545 ± 0.04 | 0.548 ± 0.014 | 0.401 ± 0.027 | 0.578 ± 0.012 | 0.366 ± 0.009 | 0.397 ± 0.015 | 0.55 ± 0.014 | 0.479 ± 0.0089
RVHFLIVFLCRF | 0.441 ± 0.012 | 0.4927 ± 0.0037 | 0.369 ± 0.011 | 0.526 ± 0.012 | 0.398 ± 0.024 | 0.361 ± 0.014 | 0.472 ± 0.021 | 0.399 ± 0.051
RVSIIYLGVLIS | 0.174 ± 0.012 | 0.297 ± 0.025 | 0.26 ± 0.024 | 0.436 ± 0.0092 | 0.0604 ± 0.011 | 0.073 ± 0.013 | 0.0592 ± 0.036 | 0.112 ± 0.025
RVTYWKAVLVRL | 0.47 ± 0.07 | 0.461 ± 0.022 | 0.44 ± 0.031 | 0.6 ± 0.017 | 0.108 ± 0.025 | 0.109 ± 0.025 | 0.13 ± 0.0084 | 0.212 ± 0.016
RYCVVDISAFCD | 0.489 ± 0.017 | 0.576 ± 0.021 | 0.368 ± 0.029 | 0.5947 ± 0.0057 | 0.37 ± 0.017 | 0.388 ± 0.026 | 0.573 ± 0.024 | 0.465 ± 0.0094
RYLCLTPALYLS | 0.45 ± 0.014 | 0.5588 ± 0.0053 | 0.509 ± 0.027 | 0.621 ± 0.0072 | 0.125 ± 0.017 | 0.113 ± 0.012 | 0.157 ± 0.016 | 0.151 ± 0.11
SCFRFFFLFLFF | 0.192 ± 0.011 | 0.197 ± 0.0042 | 0.282 ± 0.024 | 0.361 ± 0.016 | 0.4322 ± 0.00071 | 0.238 ± 0.043 | 0.312 ± 0.0097 | 0.322 ± 0.052
SCFRSLAVYFLC | 0.333 ± 0.025 | 0.624 ± 0.02 | 0.603 ± 0.033 | 0.678 ± 0.01 | 0.0706 ± 0.0018 | 0.07 ± 0.015 | 0.0763 ± 0.0025 | 0.155 ± 0.032
